Experimental data published in the supplement of paper PMC7877785.
± gives the uncertainty stated by the source.

Test: self-splicing fitness, log relative to wild type (ln ratio); higher = more splicing; Tetrahymena group I intron in knt gene, E. coli kanamycin selection, DiMSum; sequences stand for … in CUCUCU…GGAGGGAAAAGUUAUCAGGCAUGCACCUGGUAGCUAGUCUUUAAACCAAUAGAUUGCAUCGGUUUAAAAGGCAAGACCGUCAAAUUGCGGGAAAGGGGUCAACAGCCGUUCAGUACCAAGUCUCAGGGGAAACUUUGAGAUGGCCUUGCAAAGGGUAUGGUAAUAAGCUGACGGACAUGGUCCUAACCACGCAGCCAAGUCCUAAGUCAACAGAUCUUCUGUUGAUAUGGAUGCAGUUCACAGACUAAAUGUCGGUCGGGGAAGAUGUAUUCUUCUCAUAAGAUAUAGUCGGACCUCUCCUUAAUGGGAGCUAGCGGAUGAAGUGAUGCAACACUGGAGCCGCUGGGAACUAAUUUGUAUGCGAAAGUAUAUUGAUUAGUUUUGGAGUACUCGUGGUCG
Procedure, shortened: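 A randomised library covering all eight P1ex-region intron nucleotides was built with the intron in the knt kanamycin-resistance gene on pET-22b(+) and held in E. coli BL21(DE3). Cells were grown overnight at 37°C or 30°C on LB agar, with or without 25 μg/mL kanamycin, plus 100 μg/mL carbenicillin, 50 μM IPTG and 0.2% rhamnose, and pooled colonies were amplicon-sequenced on an Illumina HiSeq 2500. DiMSum fitness is the error-weighted combination of wild-type-normalised replicate fold changes, kanamycin versus none.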

| Sequence | self-splicing fitness (ln) (30 °C) | self-splicing fitness (ln) (37 °C) |
| --- | --- | --- |
| GGAAAGCAAUAUUACGUGCG | -0.344 ± 0.11 | -0.596 ± 0.12 |
| GGAAAGCAAUAUUACGUGUA | -1.92 ± 0.096 | -1.8 ± 0.13 |
| GGAAAGCAAUAUUACGUGUC | -3.94 ± 0.31 | -1.91 ± 0.19 |
| GGACAGCAAUAUUACGAAAA | -1.42 ± 0.19 | -1.36 ± 0.15 |
| GGACAGCAAUAUUACGAAUC | -0.0402 ± 0.12 | 0.32 ± 0.17 |
| GGACAGCAAUAUUACGACAA | -1.7 ± 0.21 | -0.0889 ± 0.12 |
| GGACAGCAAUAUUACGACAG | -3.31 ± 0.21 | -2.33 ± 0.27 |
| GGACAGCAAUAUUACGAGUU | -3.64 ± 0.19 | -1.24 ± 0.11 |
| GGACAGCAAUAUUACGAUCG | -0.492 ± 0.099 | 0.519 ± 0.11 |
| GGACAGCAAUAUUACGCAAU | -0.155 ± 0.13 | 0.311 ± 0.11 |
| GGACAGCAAUAUUACGCUCC |  | -1.24 ± 0.46 |
| GGACAGCAAUAUUACGCUUA | -0.319 ± 0.08 | 0.1 ± 0.1 |
| GGACAGCAAUAUUACGGACA | -0.509 ± 0.11 | -0.307 ± 0.11 |
| GGACAGCAAUAUUACGGACU | -1.01 ± 0.079 | -0.461 ± 0.09 |
| GGACAGCAAUAUUACGGCAU | -0.228 ± 0.053 | 0.0818 ± 0.068 |
| GGACAGCAAUAUUACGGCGG | -2.64 ± 0.13 | -1.52 ± 0.13 |
| GGACAGCAAUAUUACGGGUG | -2.51 ± 0.097 | -1.64 ± 0.1 |
| GGACAGCAAUAUUACGUAUG | -1.13 ± 0.073 | -0.419 ± 0.08 |
| GGACAGCAAUAUUACGUCCG | -2.1 ± 0.12 | -1.89 ± 0.18 |
| GGACAGCAAUAUUACGUCUC | -4.03 ± 0.18 | -2.57 ± 0.2 |
| GGACAGCAAUAUUACGUGGU | -2.9 ± 0.12 | -1.08 ± 0.11 |
| GGACAGCAAUAUUACGUGUU | -3.42 ± 0.13 | -2.44 ± 0.2 |
| GGACAGCAAUAUUACGUUUA | -0.44 ± 0.059 | 0.258 ± 0.077 |
| GGAGAGCAAUAUUACGACUC | -1.21 ± 0.23 | -0.0732 ± 0.34 |
| GGAGAGCAAUAUUACGACUG |  | -1.15 ± 0.27 |

| Sequence | self-splicing fitness (ln) (30 °C) | self-splicing fitness (ln) (37 °C) |
| --- | --- | --- |
| GGAGAGCAAUAUUACGAGCC | -2.64 ± 0.49 |  |
| GGAGAGCAAUAUUACGAGCG |  | -1.86 ± 0.37 |
| GGAGAGCAAUAUUACGAUAG |  | -1.94 ± 0.28 |
| GGAGAGCAAUAUUACGAUCA | -1.04 ± 0.16 | -1.73 ± 0.25 |
| GGAGAGCAAUAUUACGCAAU | -3.02 ± 0.2 | -2.55 ± 0.31 |
| GGAGAGCAAUAUUACGCGUG | -3.84 ± 0.33 | -2.53 ± 0.18 |
| GGAGAGCAAUAUUACGCUCC |  | -1.68 ± 0.45 |
| GGAGAGCAAUAUUACGCUCG | -2.7 ± 0.24 | -2.45 ± 0.19 |
| GGAGAGCAAUAUUACGCUUA | -2.12 ± 0.14 | -0.41 ± 0.14 |
| GGAGAGCAAUAUUACGGAGU |  | -2.68 ± 0.31 |
| GGAGAGCAAUAUUACGGCAA | -2.75 ± 0.47 | -1.59 ± 0.43 |
| GGAGAGCAAUAUUACGGUUG | -2.38 ± 0.22 | -2.05 ± 0.38 |
| GGAGAGCAAUAUUACGUCGG | -4.62 ± 0.39 | -3.75 ± 0.3 |
| GGAGAGCAAUAUUACGUCUA | -1.23 ± 0.13 | -1.4 ± 0.1 |
| GGAGAGCAAUAUUACGUGAG | -3.33 ± 0.23 | -1.56 ± 0.2 |
| GGAGAGCAAUAUUACGUGCC |  | -2.38 ± 0.42 |
| GGAGAGCAAUAUUACGUGGC |  | -1.63 ± 0.25 |
| GGAGAGCAAUAUUACGUUCU | -3.27 ± 0.25 | -3.5 ± 0.39 |
| GGAGAGCAAUAUUACGUUUG |  | -2.01 ± 0.38 |
| GGAUAGCAAUAUUACGAACA | -1.95 ± 0.19 | 0.22 ± 0.15 |
| GGAUAGCAAUAUUACGAACG | 0.209 ± 0.14 | -0.196 ± 0.18 |
| GGAUAGCAAUAUUACGAAUA |  | 0.53 ± 0.21 |
| GGAUAGCAAUAUUACGACAG | -4.21 ± 0.37 | -2.36 ± 0.29 |
| GGAUAGCAAUAUUACGACCG | -1.59 ± 0.26 | -1.08 ± 0.28 |
| GGAUAGCAAUAUUACGACGA | -1.43 ± 0.12 | -0.57 ± 0.1 |

| Sequence | self-splicing fitness (ln) (30 °C) | self-splicing fitness (ln) (37 °C) |
| --- | --- | --- |
| GGAUAGCAAUAUUACGACGG |  | -2.87 ± 0.48 |
| GGAUAGCAAUAUUACGACUC | -0.498 ± 0.16 | 0.298 ± 0.23 |
| GGAUAGCAAUAUUACGAGAG | -1.8 ± 0.23 | -3.09 ± 0.47 |
| GGAUAGCAAUAUUACGAGCG | -0.76 ± 0.1 | -0.0359 ± 0.088 |
| GGAUAGCAAUAUUACGAGUG | -3.38 ± 0.22 | -1.41 ± 0.14 |
| GGAUAGCAAUAUUACGAUAC | -1.23 ± 0.13 | -1.8 ± 0.16 |
| GGAUAGCAAUAUUACGAUGA | -1.04 ± 0.15 | -0.858 ± 0.14 |
| GGAUAGCAAUAUUACGCAUA | -1.88 ± 0.45 | -2.04 ± 0.39 |
| GGAUAGCAAUAUUACGCCUC | -2.02 ± 0.32 |  |
| GGAUAGCAAUAUUACGGCAC | -1.16 ± 0.14 | -0.0176 ± 0.17 |
| GGAUAGCAAUAUUACGGCAU | -0.507 ± 0.09 | 0.598 ± 0.11 |
| GGAUAGCAAUAUUACGGGUA | -2.41 ± 0.16 | 0.0404 ± 0.13 |
| GGAUAGCAAUAUUACGGGUC | -4.23 ± 0.46 | -2.64 ± 0.29 |
| GGAUAGCAAUAUUACGUCCA | -1.4 ± 0.17 | -0.317 ± 0.19 |
| GGAUAGCAAUAUUACGUGAC | -2.63 ± 0.35 | -1.46 ± 0.26 |
| GGAUAGCAAUAUUACGUGCA | -1.3 ± 0.11 | 0.203 ± 0.12 |
| GGAUAGCAAUAUUACGUUAU | -4.06 ± 0.24 | -3.28 ± 0.23 |
| GGAUAGCAAUAUUACGUUUA | -1.02 ± 0.16 | 0.714 ± 0.14 |
| GGCAAGCAAUAUUACGAGAA | -1.8 ± 0.29 | -1.74 ± 0.26 |
| GGCAAGCAAUAUUACGAGAG | -3.94 ± 0.24 | -2.26 ± 0.15 |
| GGCAAGCAAUAUUACGAGAU | -2.56 ± 0.21 | -0.168 ± 0.15 |
| GGCAAGCAAUAUUACGAGCA | -0.434 ± 0.13 | -0.381 ± 0.14 |
| GGCAAGCAAUAUUACGCGGG | -3.73 ± 0.21 | -3.23 ± 0.26 |
| GGCAAGCAAUAUUACGGAAC | -1.46 ± 0.13 | 0.485 ± 0.21 |
| GGCAAGCAAUAUUACGGACU | 0.0032 ± 0.071 | 0.777 ± 0.096 |

| Sequence | self-splicing fitness (ln) (30 °C) | self-splicing fitness (ln) (37 °C) |
| --- | --- | --- |
| GGCAAGCAAUAUUACGGAGC | -1.36 ± 0.2 | 0.0393 ± 0.25 |
| GGCAAGCAAUAUUACGGGAA | -1.34 ± 0.12 | -1.16 ± 0.13 |
| GGCAAGCAAUAUUACGGUAC | -0.729 ± 0.072 | -0.752 ± 0.09 |
| GGCAAGCAAUAUUACGUACU | -0.208 ± 0.072 | 0.344 ± 0.088 |
| GGCAAGCAAUAUUACGUCAA | -1.84 ± 0.14 | -0.756 ± 0.12 |
| GGCAAGCAAUAUUACGUCGA | -0.765 ± 0.13 | -0.561 ± 0.13 |
| GGCAAGCAAUAUUACGUCUG | -3.13 ± 0.18 | -1.09 ± 0.094 |
| GGCAAGCAAUAUUACGUGUU | -1.96 ± 0.059 | -1.83 ± 0.076 |
| GGCAAGCAAUAUUACGUUCC | -1.43 ± 0.11 | -0.714 ± 0.14 |
| GGCAAGCAAUAUUACGUUCG | -0.0493 ± 0.065 | -0.196 ± 0.08 |
| GGCAAGCAAUAUUACGUUUU | -0.0842 ± 0.054 | 0.186 ± 0.082 |
| GGCCAGCAAUAUUACGAAGG |  | -2.62 ± 0.33 |
| GGCCAGCAAUAUUACGAAUC | -0.266 ± 0.11 | 0.822 ± 0.14 |
| GGCCAGCAAUAUUACGAGAU | -2.68 ± 0.18 | -2.82 ± 0.24 |
| GGCCAGCAAUAUUACGAGGA |  | -1.26 ± 0.15 |
| GGCCAGCAAUAUUACGAGGU | -3.26 ± 0.45 | -2.45 ± 0.32 |
| GGCCAGCAAUAUUACGAGUA | -2.59 ± 0.12 | -2.05 ± 0.12 |
| GGCCAGCAAUAUUACGAUAU | -1.67 ± 0.08 | -1.78 ± 0.1 |
| GGCCAGCAAUAUUACGCAUA | -1.52 ± 0.095 | -0.945 ± 0.12 |
| GGCCAGCAAUAUUACGCGGG | -3.29 ± 0.48 | -3.29 ± 0.37 |
| GGCCAGCAAUAUUACGCGUA | -1.07 ± 0.11 | -0.484 ± 0.1 |
| GGCCAGCAAUAUUACGGAGA | -0.788 ± 0.095 | -0.565 ± 0.086 |
| GGCCAGCAAUAUUACGGCUG | -1.41 ± 0.12 | -0.562 ± 0.2 |
| GGCCAGCAAUAUUACGGGCG | -2.13 ± 0.2 | -2.02 ± 0.26 |
| GGCCAGCAAUAUUACGGUUU | -0.995 ± 0.067 | -0.401 ± 0.074 |
